Assay results taken from article PMC3817118.

Assays:
[1] = molecular target: central region of the human metapneumovirus phosphoprotein (HMPV P residues 158-237) (human metapneumovirus, strain NL1-00); experiment: SAXS; Pced in solution at 3-6 mg/ml, 20 C; 20 mM Tris pH 7.5 with 150 mM NaCl, 800 mM NaCl, or NaCl plus 1 M NDSB-201; molecular weight from the volume of correlation Vc compared with the mass of a tetramer
[2] = molecular target: core region of Pced (P_(core)), degradation fragment of HMPV P 158-237 found in the crystal (human metapneumovirus, strain NL1-00); experiment: crystal structure; vapor diffusion, 25 % PEG 3350, 100 mM HEPES pH 7.5, 20 C, crystal after ~142 days; 3.1 A, molecular replacement with the ab initio P_(core) model; 2 tetramers in the asymmetric unit

Substance: central region of the human metapneumovirus phosphoprotein (HMPV P residues 158-237) (domain or fragment)
- stoichiometry N [1]: 4

Substance: core region of Pced (P_(core)), degradation fragment of HMPV P 158-237 found in the crystal (domain or fragment)
- stoichiometry N [2]: 4
